Reference: patent US20230203119A1 (IGM BIOSCIENCES, published 2023)

Tests used:
[1] = biological target: T1, PD-L1 (UniProt Q9NZQ7 19-238, limits assumed); assay: ELISA on PD-L1
T1 construct: ELISA antigen; also called programmed cell death ligand-1 protein

[2] = biological target: T2, IL-15 receptor (β and γ subunits) on human CD8 T cells and NK cells (human, UniProt P14784 27-551; P31785 23-369); assay: cell-based or functional assay
T2 sequence (looked up) 1: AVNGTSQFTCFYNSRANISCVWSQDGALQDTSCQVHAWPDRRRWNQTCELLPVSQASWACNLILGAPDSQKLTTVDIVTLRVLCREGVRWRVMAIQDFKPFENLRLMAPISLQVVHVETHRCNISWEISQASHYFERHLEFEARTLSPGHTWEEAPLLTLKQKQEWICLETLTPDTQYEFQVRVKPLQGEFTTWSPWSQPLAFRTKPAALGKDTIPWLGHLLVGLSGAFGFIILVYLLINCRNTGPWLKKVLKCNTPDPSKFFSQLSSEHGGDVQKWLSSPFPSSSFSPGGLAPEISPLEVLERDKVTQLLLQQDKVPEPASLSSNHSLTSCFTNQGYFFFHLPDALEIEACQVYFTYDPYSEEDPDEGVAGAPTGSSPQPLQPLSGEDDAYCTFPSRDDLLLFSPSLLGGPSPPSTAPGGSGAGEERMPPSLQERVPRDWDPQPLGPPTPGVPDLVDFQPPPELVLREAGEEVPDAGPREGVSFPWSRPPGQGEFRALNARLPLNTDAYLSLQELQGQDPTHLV
T2 sequence (looked up) 2: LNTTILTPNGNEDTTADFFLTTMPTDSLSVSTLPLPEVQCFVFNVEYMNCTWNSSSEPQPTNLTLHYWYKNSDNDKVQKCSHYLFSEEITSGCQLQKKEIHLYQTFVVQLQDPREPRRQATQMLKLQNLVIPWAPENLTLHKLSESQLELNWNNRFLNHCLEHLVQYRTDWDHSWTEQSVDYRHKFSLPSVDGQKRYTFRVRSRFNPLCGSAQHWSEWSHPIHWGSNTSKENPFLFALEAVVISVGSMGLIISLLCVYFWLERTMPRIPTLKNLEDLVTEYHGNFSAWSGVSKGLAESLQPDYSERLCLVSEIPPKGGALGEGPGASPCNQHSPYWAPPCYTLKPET

[3] = biological target: T2, IL-15 receptor (β and γ subunits) on …; assay: cell-based or functional assay; remark: listed apart in the source
[4] = biological target: T2, IL-15 receptor (β and γ subunits) on …; assay: cell-based or functional assay; remark: listed apart in the source
[5] = biological target: T2, IL-15 receptor (β and γ subunits) on …; assay: cell-based or functional assay; remark: listed apart in the source
[6] = biological target: T3, IL-15 receptor (β and γ subunits) on cynomolgus CD8 T cells (cynomolgus, UniProt Q38J85 27-551; A0A2K5VGJ6 23-369); assay: cell-based or functional assay
T3 sequence (looked up) 1: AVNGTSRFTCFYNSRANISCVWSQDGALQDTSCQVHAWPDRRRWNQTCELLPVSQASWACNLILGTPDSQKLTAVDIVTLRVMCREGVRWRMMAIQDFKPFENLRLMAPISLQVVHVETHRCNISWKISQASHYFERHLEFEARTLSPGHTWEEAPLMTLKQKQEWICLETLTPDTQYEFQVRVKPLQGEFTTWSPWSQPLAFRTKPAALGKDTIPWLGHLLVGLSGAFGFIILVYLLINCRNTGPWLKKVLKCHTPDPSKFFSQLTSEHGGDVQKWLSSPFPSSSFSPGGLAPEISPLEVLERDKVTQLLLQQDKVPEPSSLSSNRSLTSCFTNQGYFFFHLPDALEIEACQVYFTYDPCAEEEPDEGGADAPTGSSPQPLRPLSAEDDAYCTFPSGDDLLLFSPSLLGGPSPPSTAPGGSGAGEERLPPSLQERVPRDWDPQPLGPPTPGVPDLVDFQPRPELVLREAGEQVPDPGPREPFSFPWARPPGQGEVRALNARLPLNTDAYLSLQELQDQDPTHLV
T3 sequence (looked up) 2: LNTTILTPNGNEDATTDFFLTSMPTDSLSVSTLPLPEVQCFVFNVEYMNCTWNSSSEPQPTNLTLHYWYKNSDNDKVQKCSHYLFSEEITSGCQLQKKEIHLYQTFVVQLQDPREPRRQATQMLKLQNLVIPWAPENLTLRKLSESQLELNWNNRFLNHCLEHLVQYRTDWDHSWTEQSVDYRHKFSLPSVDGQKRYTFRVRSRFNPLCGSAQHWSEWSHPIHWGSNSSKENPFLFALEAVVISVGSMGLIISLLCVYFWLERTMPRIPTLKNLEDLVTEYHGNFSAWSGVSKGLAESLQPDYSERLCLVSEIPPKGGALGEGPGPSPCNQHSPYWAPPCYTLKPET

[7] = biological target: T2, IL-15 receptor (β and γ subunits) on …; assay: cell-based or functional assay; remark: listed apart in the source
[8] = biological target: T4, human PD-L1 expressed on HEK-293T cells (human, UniProt Q9NZQ7 19-290); assay: high-throughput flow cytometry on HEK-293T cells expressing human PD-L1 and its alanine mutants
T4 construct: whole, on cells
T4 sequence (Q9NZQ7 19-290): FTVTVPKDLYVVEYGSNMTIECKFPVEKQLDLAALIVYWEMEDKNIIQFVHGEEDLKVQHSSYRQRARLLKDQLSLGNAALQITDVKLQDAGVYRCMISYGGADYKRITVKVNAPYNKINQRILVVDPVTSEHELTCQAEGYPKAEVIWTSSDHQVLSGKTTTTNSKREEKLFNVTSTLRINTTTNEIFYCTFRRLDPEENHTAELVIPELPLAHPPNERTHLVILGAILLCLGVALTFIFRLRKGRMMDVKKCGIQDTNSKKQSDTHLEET
Experimental: The epitope that the 3C5 H2L2 (VH: SEQ ID NO: 91, VL: SEQ ID NO: 94) antibody binds to on human PD-L1 was mapped using Alanine-scanning mutagenesis. Epitope mapping was performed by constructing an Alanine scan library of human PD-L1 which was then expressed on HEK-293T cells. Binding of the 3C5 H2L2 F(ab′)2 to each HEK-293 transfected PD-L1 mutant version was evaluated by high-throughput flow cytometry.

T1 sequence (Q9NZQ7 19-238 limits assumed): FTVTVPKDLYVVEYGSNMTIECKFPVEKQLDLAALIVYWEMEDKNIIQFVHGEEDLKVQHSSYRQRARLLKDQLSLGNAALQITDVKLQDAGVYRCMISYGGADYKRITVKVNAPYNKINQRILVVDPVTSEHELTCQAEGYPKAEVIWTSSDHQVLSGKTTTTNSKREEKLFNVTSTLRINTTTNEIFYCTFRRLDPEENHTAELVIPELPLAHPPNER

B1: KD-RI (anti-PD-L1 IgG with human IL-15Ralpha sushi domain and human IL-15 fused to its C-terminus) (antibody)
heavy: not shown
light: QSALTQPASVSGSPGQSITISCTGTSSDVGAYNYVSWYQQHPGKAPKLMIYDVSNRPSGVSNRFSGSKSGNTASLTISGLQAEDEADYYCSSYTSSSTRVFGTGTKVTVLGQPKANPTVTLFPPSSEELQANKATLVCLISDFYPGAVTVAWKADGSPVKAGVETTKPSKQSNNKYAASSYLSLTPEQWKSHRSYSCQVTHEGSTVEKTVAPTEC
notes: Heavy chain fusion protein and light chain as described in U.S. Pat. No. 10,407,502
[1]
  Kd: 1330 pM
[2]
  CD8+ T cell proliferation (Ki-67) EC50: 510 pM

B2: h3C5 IgM + J*RI (anti-PD-L1 IgM pentamer with modified J-chain J*RI) (antibody)
VH: QVQLQESGPGLVKPSETLSLTCTVSGFSLTSYDISWIRQPPGKGLEWIGVIWTGVGTNYNPSLKSRVTISVDTSKNQFSLKLSSVTAADTAVYYCARDPYYYGMDYWGQGTLVTVSS
VL: DIQMTQSPSSLSASVGDRVTITCRASQDISIWLSWYQQKPGKAPKLLIYKASNLHTGVPSRFSGSGSGTDFTLTISSLQPEDFATYYCLQSQSFPRTFGQGTKLEIK
chain: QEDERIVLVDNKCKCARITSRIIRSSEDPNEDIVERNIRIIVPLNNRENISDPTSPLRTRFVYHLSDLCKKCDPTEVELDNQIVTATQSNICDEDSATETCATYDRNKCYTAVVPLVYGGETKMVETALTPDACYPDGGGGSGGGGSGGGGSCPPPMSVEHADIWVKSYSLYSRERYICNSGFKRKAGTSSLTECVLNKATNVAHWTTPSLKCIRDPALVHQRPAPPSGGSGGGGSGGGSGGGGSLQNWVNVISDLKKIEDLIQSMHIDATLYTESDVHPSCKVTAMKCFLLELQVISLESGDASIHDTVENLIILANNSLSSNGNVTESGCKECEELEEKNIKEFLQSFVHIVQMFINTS
notes: IgM pentamer; Third chain is the modified J-chain J*RI (J* Y102A - IL-15Ralpha sushi - IL-15); also called H1-3C5 + J*RI; h3C5 + J*RI
[1]
  Kd: 40 pM
[2]
  CD8+ T cell proliferation (Ki-67) EC50: 100 pM
[3]
  CD8+ T cell proliferation (Ki-67) EC50, Donor 230: 310 pM
  CD8+ T cell proliferation (Ki-67) EC50, Donor 403: 510 pM
[4]
  NK cell proliferation (Ki-67) EC50, Donor 230: 27 pM
  NK cell proliferation (Ki-67) EC50, Donor 403: 27 pM

B3: 3C5 IgM + J*RI-N4D/N65D (IL-15 double mutant N4D/N65D) (antibody)
VH: QVQLQESGPGLVKPSETLSLTCTVSGFSLTSYDISWIRQPPGKGLEWIGVIWTGVGTNYNPSLKSRVTISVDTSKNQFSLKLSSVTAADTAVYYCARDPYYYGMDYWGQGTLVTVSS
VL: DIQMTQSPSSLSASVGDRVTITCRASQDISIWLSWYQQKPGKAPKLLIYKASNLHTGVPSRFSGSGSGTDFTLTISSLQPEDFATYYCLQSQSFPRTFGQGTKLEIK
chain: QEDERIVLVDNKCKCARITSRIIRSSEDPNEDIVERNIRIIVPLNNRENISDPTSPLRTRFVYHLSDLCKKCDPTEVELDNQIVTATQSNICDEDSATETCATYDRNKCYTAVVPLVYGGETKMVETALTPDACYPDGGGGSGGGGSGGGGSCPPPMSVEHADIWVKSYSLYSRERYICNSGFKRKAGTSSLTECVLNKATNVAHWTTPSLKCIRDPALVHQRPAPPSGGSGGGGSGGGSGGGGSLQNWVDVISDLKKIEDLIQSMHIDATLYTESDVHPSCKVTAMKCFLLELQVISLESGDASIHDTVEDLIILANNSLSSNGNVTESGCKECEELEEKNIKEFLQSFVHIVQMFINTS
[5]
  CD8+ T cell proliferation (Ki-67), potency against the constructs with WT IL-15: 50 fold reduced potency
  NK cell proliferation (Ki-67), potency against the constructs with WT IL-15: 100 fold reduced potency

B4: h3C5 IgM + J* (anti-PD-L1 IgM pentamer with J-chain variant Y102A, no IL-15) (antibody)
VH: QVQLQESGPGLVKPSETLSLTCTVSGFSLTSYDISWIRQPPGKGLEWIGVIWTGVGTNYNPSLKSRVTISVDTSKNQFSLKLSSVTAADTAVYYCARDPYYYGMDYWGQGTLVTVSS
VL: DIQMTQSPSSLSASVGDRVTITCRASQDISIWLSWYQQKPGKAPKLLIYKASNLHTGVPSRFSGSGSGTDFTLTISSLQPEDFATYYCLQSQSFPRTFGQGTKLEIK
chain: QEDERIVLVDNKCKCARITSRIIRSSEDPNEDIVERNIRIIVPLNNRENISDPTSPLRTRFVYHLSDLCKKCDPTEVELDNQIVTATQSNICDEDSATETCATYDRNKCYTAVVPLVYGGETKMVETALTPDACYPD
[3]
  CD8+ T cell proliferation (Ki-67) EC50, Donor 230: > 80000 pM
  CD8+ T cell proliferation (Ki-67) EC50, Donor 403: > 80000 pM
[4]
  NK cell proliferation (Ki-67) EC50, Donor 230: > 80000 pM
  NK cell proliferation (Ki-67) EC50, Donor 403: > 80000 pM

B5: h3C5 IgM + SJ*RI (anti-PD-L1 IgM pentamer with modified J-chain SP34 scFv-J*-R-I) (bispecific antibody)
VH: QVQLQESGPGLVKPSETLSLTCTVSGFSLTSYDISWIRQPPGKGLEWIGVIWTGVGTNYNPSLKSRVTISVDTSKNQFSLKLSSVTAADTAVYYCARDPYYYGMDYWGQGTLVTVSS
VL: DIQMTQSPSSLSASVGDRVTITCRASQDISIWLSWYQQKPGKAPKLLIYKASNLHTGVPSRFSGSGSGTDFTLTISSLQPEDFATYYCLQSQSFPRTFGQGTKLEIK
chain: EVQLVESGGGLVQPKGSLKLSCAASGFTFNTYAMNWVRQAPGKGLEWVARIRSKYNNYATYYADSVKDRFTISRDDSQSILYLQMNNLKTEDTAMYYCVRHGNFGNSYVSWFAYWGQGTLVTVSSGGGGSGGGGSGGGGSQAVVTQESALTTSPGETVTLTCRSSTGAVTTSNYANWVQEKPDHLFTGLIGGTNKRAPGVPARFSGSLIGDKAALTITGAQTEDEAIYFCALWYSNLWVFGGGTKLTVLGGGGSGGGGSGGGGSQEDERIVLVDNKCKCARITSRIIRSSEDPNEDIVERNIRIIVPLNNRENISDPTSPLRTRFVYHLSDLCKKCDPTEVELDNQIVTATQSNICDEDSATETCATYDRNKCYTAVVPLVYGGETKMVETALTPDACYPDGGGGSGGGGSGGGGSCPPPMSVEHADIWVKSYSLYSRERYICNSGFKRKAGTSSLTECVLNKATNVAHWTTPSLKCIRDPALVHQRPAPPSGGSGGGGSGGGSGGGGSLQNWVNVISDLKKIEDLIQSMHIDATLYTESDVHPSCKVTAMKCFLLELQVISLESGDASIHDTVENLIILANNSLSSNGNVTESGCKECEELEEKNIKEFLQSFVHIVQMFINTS
[3]
  CD8+ T cell proliferation (Ki-67) EC50, Donor 230: 30 pM
  CD8+ T cell proliferation (Ki-67) EC50, Donor 403: 340 pM
[4]
  NK cell proliferation (Ki-67) EC50, Donor 230: 630 pM
  NK cell proliferation (Ki-67) EC50, Donor 403: 710 pM

B6: m3c5-J*RI (anti-PD-L1 human IgM pentamer with m3c5 VH/VL and modified J-chain J*RI) (antibody)
VH: QVQLKESGPGLVAPSQSLSITCTVSGFSLTSYDISWVRQPPGKGLEWLGVIWTGVGTNYNSAFMSRLSISKDNSKSQVFLKMNSLQTDDTAMYYCVRDPYYYGMDYWGQGTSVTVSS
VL: DIQMNQSPSSLSASLGDTITITCRASQDISIWLSWYQQKPGNIPELLIYKASNLHTGVPPRFSGSGSGTDFTLTISSLQPEDIATYYCLQSQSFPRTFGGGTKLEIK
chain: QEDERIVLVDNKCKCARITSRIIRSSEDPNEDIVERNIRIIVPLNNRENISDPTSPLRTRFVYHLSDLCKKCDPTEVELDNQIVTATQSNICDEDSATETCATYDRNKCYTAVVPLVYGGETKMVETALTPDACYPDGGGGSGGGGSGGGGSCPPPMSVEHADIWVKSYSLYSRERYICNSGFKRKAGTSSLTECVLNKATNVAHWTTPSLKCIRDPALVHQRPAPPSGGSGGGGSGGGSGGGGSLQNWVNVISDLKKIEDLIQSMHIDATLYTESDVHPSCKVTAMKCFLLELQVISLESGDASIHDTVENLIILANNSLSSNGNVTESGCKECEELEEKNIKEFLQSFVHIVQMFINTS
[6]
  cynomolgus CD8+ T cell proliferation (Ki-67), average EC50: 6850 pM
[7]
  human CD8+ T cell proliferation (Ki-67), average EC50: 3220 pM

B7: h3C5 IgM + JH (anti-PD-L1 IgM pentamer with J-chain fused to human serum albumin) (antibody)
VH: QVQLQESGPGLVKPSETLSLTCTVSGFSLTSYDISWIRQPPGKGLEWIGVIWTGVGTNYNPSLKSRVTISVDTSKNQFSLKLSSVTAADTAVYYCARDPYYYGMDYWGQGTLVTVSS
VL: DIQMTQSPSSLSASVGDRVTITCRASQDISIWLSWYQQKPGKAPKLLIYKASNLHTGVPSRFSGSGSGTDFTLTISSLQPEDFATYYCLQSQSFPRTFGQGTKLEIK
chain: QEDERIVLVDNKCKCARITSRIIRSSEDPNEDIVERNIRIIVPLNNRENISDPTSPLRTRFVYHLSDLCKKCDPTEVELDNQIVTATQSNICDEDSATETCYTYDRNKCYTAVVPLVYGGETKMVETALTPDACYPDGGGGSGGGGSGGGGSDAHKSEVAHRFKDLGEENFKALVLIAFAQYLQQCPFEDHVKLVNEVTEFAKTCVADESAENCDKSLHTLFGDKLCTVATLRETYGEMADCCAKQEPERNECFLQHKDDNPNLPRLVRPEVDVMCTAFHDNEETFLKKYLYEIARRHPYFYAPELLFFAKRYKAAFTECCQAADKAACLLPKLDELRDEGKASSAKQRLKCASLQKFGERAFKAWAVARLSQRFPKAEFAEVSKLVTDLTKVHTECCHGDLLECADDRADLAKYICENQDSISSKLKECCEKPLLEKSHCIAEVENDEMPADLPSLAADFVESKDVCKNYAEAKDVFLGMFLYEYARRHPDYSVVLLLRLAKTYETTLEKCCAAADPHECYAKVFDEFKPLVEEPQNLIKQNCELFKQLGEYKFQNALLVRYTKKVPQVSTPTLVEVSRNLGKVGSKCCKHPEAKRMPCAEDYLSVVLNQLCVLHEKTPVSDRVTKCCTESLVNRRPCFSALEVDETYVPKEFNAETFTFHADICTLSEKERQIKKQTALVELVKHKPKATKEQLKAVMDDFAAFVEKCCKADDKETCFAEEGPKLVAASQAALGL
notes: IgM pentamer; Third chain is the modified J-chain J15HSA (no IL-15); also called H1-3C5 + JH; hu3C5+JH
[1]
  Kd: 50 pM
[2]
  CD8+ T cell proliferation (Ki-67) EC50: > 100000 pM

B8: 3C5 H2L2 F(ab')2 (antibody, V domains shown)
VH: QVQLQESGPGLVKPSETLSLTCTVSGFSLTSYDISWIRQPPGKGLEWLGVIWTGVGTNYNPSLKSRVTISKDTSKNQFSLKLSSVTAADTAVYYCARDPYYYGMDYWGQGTLVTVSS
VL: DIQMTQSPSSLSASVGDRITITCRASQDISIWLSWYQQKPGKAPKLLIYKASNLHTGVPSRFSGSGSGTDFTLTISSLQPEDFATYYCLQSQSFPRTFGQGTKLEIK
notes: Tested as F(ab')2; also called 3C5 Fab
[8]
  binding result: binds

B9: 153 IgM + J*RI (anti-CD20 IgM antibody 153 with modified J-chain J*RI) (antibody)
VH: EVQLVQSGAEVKKPGESLKISCKGSGYSFTSYWIGWVRQMPGKGLEWMGIIYPGDSDTRYSPSFQGQVTISADKSITTAYLQWSSLKASDTAMYYCARHPSYGSGSPNFDYWGQGTLVTVSS
VL: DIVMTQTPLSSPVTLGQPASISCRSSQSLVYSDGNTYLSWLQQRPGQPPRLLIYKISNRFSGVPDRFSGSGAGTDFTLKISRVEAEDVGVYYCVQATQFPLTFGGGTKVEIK
chain: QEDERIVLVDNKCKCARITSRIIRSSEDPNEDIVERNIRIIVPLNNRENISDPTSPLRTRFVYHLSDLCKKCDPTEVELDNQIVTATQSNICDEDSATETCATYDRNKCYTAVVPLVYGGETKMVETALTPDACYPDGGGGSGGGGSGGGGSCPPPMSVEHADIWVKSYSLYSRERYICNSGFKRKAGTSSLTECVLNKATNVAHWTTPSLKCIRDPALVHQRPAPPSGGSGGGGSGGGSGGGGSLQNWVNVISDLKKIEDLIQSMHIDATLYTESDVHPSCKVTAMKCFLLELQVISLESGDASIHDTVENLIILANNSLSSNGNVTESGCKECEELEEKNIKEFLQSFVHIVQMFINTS
[2]
  CD8+ T cell proliferation (Ki-67) EC50: 640 pM
